Blank lines part the entries; values can stand above or below the molecule they belong to.
Experiments:
[1] = substrate: T1, BSSαγ complex (UniProt O68395)
T1 sequence 1: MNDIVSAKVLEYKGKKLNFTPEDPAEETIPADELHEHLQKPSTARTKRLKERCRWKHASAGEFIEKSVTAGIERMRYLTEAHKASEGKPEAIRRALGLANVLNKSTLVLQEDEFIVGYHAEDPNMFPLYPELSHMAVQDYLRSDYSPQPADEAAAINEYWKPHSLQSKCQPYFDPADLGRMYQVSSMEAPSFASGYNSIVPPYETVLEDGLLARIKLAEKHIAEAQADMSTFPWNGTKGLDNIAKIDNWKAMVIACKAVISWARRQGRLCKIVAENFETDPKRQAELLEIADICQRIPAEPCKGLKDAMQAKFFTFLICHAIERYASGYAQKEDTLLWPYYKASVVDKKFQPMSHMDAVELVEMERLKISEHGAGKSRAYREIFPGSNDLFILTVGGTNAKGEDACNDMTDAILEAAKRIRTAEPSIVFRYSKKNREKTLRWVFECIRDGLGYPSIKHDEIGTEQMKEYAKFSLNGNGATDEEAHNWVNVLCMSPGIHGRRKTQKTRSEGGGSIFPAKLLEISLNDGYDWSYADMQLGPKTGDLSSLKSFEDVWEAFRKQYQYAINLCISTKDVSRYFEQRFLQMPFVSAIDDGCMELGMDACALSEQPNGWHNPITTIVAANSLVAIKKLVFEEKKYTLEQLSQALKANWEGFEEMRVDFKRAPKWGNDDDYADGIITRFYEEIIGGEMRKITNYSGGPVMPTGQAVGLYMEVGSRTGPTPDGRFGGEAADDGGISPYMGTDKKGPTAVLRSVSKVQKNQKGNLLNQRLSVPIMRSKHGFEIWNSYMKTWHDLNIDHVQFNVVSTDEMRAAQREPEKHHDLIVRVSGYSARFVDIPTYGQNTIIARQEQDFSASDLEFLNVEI
T1 sequence 2: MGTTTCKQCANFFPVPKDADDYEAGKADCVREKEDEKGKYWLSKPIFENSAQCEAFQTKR

AdoMet cleavage by as purified IbsAE with IBSSαγ and IBSSβ added (dAdo by LCMS, 2 h endpoint, n = 3); 47.6 μM dAdo without IBSSβ (IBSSαγ complex): 7.2 μM dAdo
AdoMet cleavage by reconstituted IbsAE with IBSSαγ and IBSSβ added (dAdo by LCMS, 2 h endpoint, n = 3); 46.7 μM dAdo without IBSSβ (IBSSαγ complex): 5.4 μM dAdo
Molecule: 4-isopropylbenzylsuccinate synthase beta subunit (IBSSβ), affinity tag removed (from UniProt A0A096ZP03 1-73) (natural protein)

AdoMet cleavage by as purified IbsAE with IBSSαγ added (dAdo by LCMS, 2 h endpoint, n = 3); 1.1 μM dAdo without IBSSαγ (IBSSαγ complex): 47.6 μM dAdo
AdoMet cleavage by reconstituted IbsAE with IBSSαγ added (dAdo by LCMS, 2 h endpoint, n = 3); 1.4 μM dAdo without IBSSαγ (IBSSαγ complex): 46.7 μM dAdo
Molecule: 4-isopropylbenzylsuccinate synthase activating enzyme (IbsAE)

B1: Benzylsuccinate synthase beta subunit (BSSβ), affinity tag removed (natural protein)
chain: MEGSNMETGQNLQNQPHTEVGTARPCRSCKWQTPDPTDPHRGQCTANRHAMGGVWKRWLRDVENTTCSRHEEGKLSFRDHV
benzylsuccinate formed from fumarate and toluene by activated BSSαγ (40 μM) with BSSβ (40 μM) added (assay yield by QToF-LCMS, n = 9); 0.7% without BSSβ (% assay yield) [1]: 92.3

Source: article PMC10239695
